Laboratory results as given in paper doi:10.1101/2025.05.23.655772, “A Proteolytic Switch: USP5 controls SDE2 function via UBL-directed cleavage” (bioRxiv, 2025).
Changes are numbered by the printed parent chain. Names may count otherwise.

B1: ubiquitin-specific protease 5, wild type (enzyme, human, UniProt P45974 1-858, looked up)
chain: MAELSEEALLSVLPTIRVPKAGDRVHKDECAFSFDTPESEGGLYICMNTFLGFGKQYVERHFNKTGQRVYLHLRRTRRPKEEDPATGTGDPPRKKPTRLAIGVEGGFDLSEEKFELDEDVKIVILPDYLEIARDGLGGLPDIVRDRVTSAVEALLSADSASRKQEVQAWDGEVRQVSKHAFSLKQLDNPARIPPCGWKCSKCDMRENLWLNLTDGSILCGRRYFDGSGGNNHAVEHYRETGYPLAVKLGTITPDGADVYSYDEDDMVLDPSLAEHLSHFGIDMLKMQKTDKTMTELEIDMNQRIGEWELIQESGVPLKPLFGPGYTGIRNLGNSCYLNSVVQVLFSIPDFQRKYVDKLEKIFQNAPTDPTQDFSTQVAKLGHGLLSGEYSKPVPESGDGERVPEQKEVQDGIAPRMFKALIGKGHPEFSTNRQQDAQEFFLHLINMVERNCRSSENPNEVFRFLVEEKIKCLATEKVKYTQRVDYIMQLPVPMDAALNKEELLEYEEKKRQAEEEKMALPELVRAQVPFSSCLEAYGAPEQVDDFWSTALQAKSVAVKTTRFASFPDYLVIQIKKFTFGLDWVPKKLDVSIEMPEELDISQLRGTGLQPGEEELPDIAPPLVTPDEPKGSLGFYGNEDEDSFCSPHFSSPTSPMLDESVIIQLVEMGFPMDACRKAVYYTGNSGAEAAMNWVMSHMDDPDFANPLILPGSSGPGSTSAAADPPPEDCVTTIVSMGFSRDQALKALRATNNSLERAVDWIFSHIDDLDAEAAMDISEGRSAADSISESVPVGPKVRDGPGKYQLFAFISHMGTSTMCGHYVCHIKKEGRWVIYNDQKVCASEKPPKDLGYIYFYQRVAS
notes: ubiquitin-specific protease 5 (USP5), human; No removal of the His tag is described; also called USP5; USP5^WT; source: E. coli BL21 (DE3), purified (Ni-NTA, SEC)
B2: catalytically inactive USP5 C335A (enzyme, human, UniProt P45974 1-858, looked up)
chain: B1 chain with C335A
notes: ubiquitin-specific protease 5 (USP5), human, catalytic cysteine mutated; The His tag is used for detection in the TR-FRET assay; also called His-USP5^C335A; source: E. coli BL21 (DE3), purified (Ni-NTA, SEC)
B3: HA-SDE2UBL-PA, activity-based probe derived from SDE2UBL (domain or fragment, human, UniProt Q6IQ49 1-76, looked up)
chain: MAEAAALVWIRGPGFGCKAVRCASGRCTVRDFIHRHCQDQNVPVENFFVKCNGALINTSDTVQHGAVYSLEPRLCG
modifications: Gly77 replaced with a propargyl electrophilic warhead (C-terminal propargylamine)
notes: Silencing Defective 2 (SDE2), human, residues 1-76 (SDE2UBL with Gly77 truncated); Forms a covalent adduct with the catalytic cysteine of reactive enzymes; also called HA-SDE2UBL-ABP; SDE2UBL-ABP; not shown: HA, N-terminal, kept
B4: SDE2 N-terminal ubiquitin-like domain, SDE2UBL(1-77) (domain or fragment, human, UniProt Q6IQ49 1-77, looked up)
chain: MAEAAALVWIRGPGFGCKAVRCASGRCTVRDFIHRHCQDQNVPVENFFVKCNGALINTSDTVQHGAVYSLEPRLCGG
notes: Silencing Defective 2 (SDE2), human, residues 1-77 (ubiquitin-like domain ending in the Gly-Gly motif); source: E. coli BL21 (DE3), purified (Ni-NTA, SUMO protease cleavage, SEC); not shown: His, N-terminal, cleaved; SUMO, N-terminal, cleaved

Legend:
Conditions in all cases: both partners purified
[1] = target: T1, monoubiquitin (UniProt P0CG48 1-76); assay: ITC; ITC200 at 298 K; 50 mM HEPES, 100 mM NaCl, 1 mM TCEP, pH 7.5; SDE2 construct or monoubiquitin titrated into USP5 (10-12 µM); duplicate
T1 construct: ubiquitin, the mature monomer

[2] = target: B1; assay: thermal shift assay; USP5^WT incubated with ABP for 1 h at 37 °C in PBS, 1 mM DTT, then SYPRO orange, 10-95 °C; Tm of the USP5-ABP covalent complex; triplicate
[3] = target: B2; assay: ITC; ITC200 at 298 K; 50 mM HEPES, 100 mM NaCl, 1 mM TCEP, pH 7.5; SDE2 construct or monoubiquitin titrated into USP5 (10-12 µM); duplicate
[4] = target: B1; assay: as above

B1
binding result [1]: binds

B2
binding result [1]: binds

B3
Tm of the covalent complex [2]: 56.4 ± 0.2 °C

B4
Kd [3]: 1.67 µM
Kd [4]: 26.6 ± 5 µM
